Positions count from the first letter of the chain named.
What was measured:
Assay in all cases: positional peptide library pulldown on immobilised Nb, LC-MS of supernatant; signal ratio to control GFP-Nb (1 = not captured, near 0 = captured)
BC2T V7E = target: T1, BC2T V7E
T1 construct: positional scanning library member
T1 peptide: Ac-PDRKAAESHWQQ-NH2
In short: (§1)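 Unbound peptide left in supernatant after 1 h pulldown in PBS/0.01% CHAPS measured by reversed-phase LC-MS (8–30% eluent B gradient, 20 min).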

BC2T D2Y = target: T2, BC2T D2Y
T2 construct: positional scanning library member
T2 peptide: Ac-PYRKAAVSHWQQ-NH2
In short: as §1

BC2T A5Q = target: T3, BC2T A5Q
T3 construct: positional scanning library member
T3 peptide: Ac-PDRKQAVSHWQQ-NH2
In short: as §1

BC2T A6E = target: T4, BC2T A6E
T4 construct: positional scanning library member
T4 peptide: Ac-PDRKAEVSHWQQ-NH2
In short: as §1

BC2T V7S = target: T5, BC2T V7S
T5 construct: positional scanning library member
T5 peptide: Ac-PDRKAASSHWQQ-NH2
In short: as §1

BC2T K4P = target: T6, BC2T K4P
T6 construct: positional scanning library member
T6 peptide: Ac-PDRPAAVSHWQQ-NH2
In short: as §1

BC2T A5T = target: T7, BC2T A5T
T7 construct: positional scanning library member
T7 peptide: Ac-PDRKTAVSHWQQ-NH2
In short: as §1

BC2T A5P = target: T8, BC2T A5P
T8 construct: positional scanning library member
T8 peptide: Ac-PDRKPAVSHWQQ-NH2
In short: as §1

BC2T P1S = target: T9, BC2T P1S
T9 construct: positional scanning library member
T9 peptide: Ac-SDRKAAVSHWQQ-NH2
In short: as §1

BC2T D2R = target: T10, BC2T D2R
T10 construct: positional scanning library member
T10 peptide: Ac-PRRKAAVSHWQQ-NH2
In short: as §1

BC2T P1R = target: T11, BC2T P1R
T11 construct: positional scanning library member
T11 peptide: Ac-RDRKAAVSHWQQ-NH2
In short: as §1

BC2T A6P = target: T12, BC2T A6P
T12 construct: positional scanning library member
T12 peptide: Ac-PDRKAPVSHWQQ-NH2
In short: as §1

BC2T A5D = target: T13, BC2T A5D
T13 construct: positional scanning library member
T13 peptide: Ac-PDRKDAVSHWQQ-NH2
In short: as §1

BC2T A5S = target: T14, BC2T A5S
T14 construct: positional scanning library member
T14 peptide: Ac-PDRKSAVSHWQQ-NH2
In short: as §1

BC2T R3Y = target: T15, BC2T R3Y
T15 construct: positional scanning library member
T15 peptide: Ac-PDYKAAVSHWQQ-NH2
In short: as §1

BC2T A6H = target: T16, BC2T A6H
T16 construct: positional scanning library member
T16 peptide: Ac-PDRKAHVSHWQQ-NH2
In short: as §1

BC2T K4S = target: T17, BC2T K4S
T17 construct: positional scanning library member
T17 peptide: Ac-PDRSAAVSHWQQ-NH2
In short: as §1

BC2T Q11E = target: T18, BC2T Q11E
T18 construct: positional scanning library member
T18 peptide: Ac-PDRKAAVSHWEQ-NH2
In short: as §1

[1] = target: T19, BC2T peptide PDRKAAVSHWQQ (human)
T19 construct: aa 16-27 of beta-catenin; also called BC2-tag; BC2-peptide
T19 peptide: Ac-PDRKAAVSHWQQ-NH2
In short: as §1

BC2T H9E = target: T20, BC2T H9E
T20 construct: positional scanning library member
T20 peptide: Ac-PDRKAAVSEWQQ-NH2
In short: as §1

BC2T Q11P = target: T21, BC2T Q11P
T21 construct: positional scanning library member
T21 peptide: Ac-PDRKAAVSHWPQ-NH2
In short: as §1

B1: BC2-NbR106E (VHH)
VHH: QVQLVESGGGLVQPGGSLTLSCTASGFTLDHYDIGWFRQAPGKEREGVSCINNSDDDTYYADSVKGRFTIFMDNAKDTVYLQMNSLKPEDTAIYYCAEARGCKRGEYEYDFWGQGTQVTVSS
notes: headlock mutant of BC2-Nb; immobilised on beads in this assay
- ratio (BC2T V7E): 0.9
- ratio (BC2T D2Y): 0.1
- ratio (BC2T A5Q): 0.2
- ratio (BC2T A6E): 1.1
- ratio (BC2T V7S): 0.3
- ratio (BC2T K4P): 1
- ratio (BC2T A5T): 0.1
- ratio (BC2T A5P): 0.2
- ratio (BC2T P1S): 0.4
- ratio (BC2T D2R): 0.1
- ratio (BC2T P1R): 0.2
- ratio (BC2T A6P): 1.1
- ratio (BC2T A5D): 0.9
- ratio (BC2T A5S): 0.2
- ratio (BC2T R3Y): 0.9
- ratio (BC2T A6H): 1
- ratio (BC2T K4S): 0.6

B2: BC2 nanobody (VHH)
VHH: B1 VHH with E106R
notes: immobilised on beads in this assay; also called BC2-Nb; BC2 nanotrap (immobilised)
- ratio (BC2T Q11E): 0.1
- ratio [1]: 0.1
- ratio (BC2T H9E): 0.2

B3: BC2-NbR106S (VHH)
VHH: B1 VHH with E106S
notes: as for B1
- ratio (BC2T Q11P): 0.9

— patent publication US20170137467A1 (CHROMOTEK, published 2017)
